Values of other authors in US6126956A, “Subcutaneous implant” (priority 1998, dated 2000).
Where two headings read alike, the source gives them in different places.

Conditions: coated EVA with hole in one face, or coated hemisphere with exposed cavity

Substance	release kinetics from prior polymer devices	release kinetics from prior polymer devices (listed as insulin)
Insulin	near constant release rates	zero order kinetics
albumin	zero order kinetics	
